Each binder was assayed against T1, CD8 expressed on the surface of HPB-ALL cells (UniProt P01732 22-235) (assay: flow cytometry on HPB-ALL cells, MFI against concentration, four-parameter fit).
T1 construct: whole, on cells
Experimental: The cells were centrifuged at 400 rpm for 5 minutes, re-suspended in 200 uL of cell staining buffer (1% BSA in phosphate buffer saline, 0.09% sodium azide). Data were acquired on the Attune Acoustic Focusing Cytometer (Applied Biosystems, Foster City, Calif.) (FIG. 9A) and Mean Fluorescent Intensity (MFI) values were plotted against concentration for each sample (FIG. 9B). Best fit binding curves and IC₅₀ values were generated with four-parameter logistic nonlinear regression using GraphPad Prism version 6 for Windows (GraphPad Software, La Jolla, Calif.). and binding assessed on an Attune acoustic focusing cytometer (Applied Biosystems) (Table 4.3).

T1 sequence (P01732 22-235): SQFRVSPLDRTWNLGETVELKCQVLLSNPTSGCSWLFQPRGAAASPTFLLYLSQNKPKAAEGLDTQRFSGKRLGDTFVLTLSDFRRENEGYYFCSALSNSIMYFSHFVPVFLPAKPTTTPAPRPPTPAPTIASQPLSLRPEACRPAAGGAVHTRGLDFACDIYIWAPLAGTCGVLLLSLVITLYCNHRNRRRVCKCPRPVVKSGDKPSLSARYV

EC50 [nM] | Binder
0.15 | IAB22C-2 (other, Cys-diabody (scFv dimer); also called anti-CD8 Cys-diabody, 2 Cys (CPPC)) scFv: DVQITQSPSSLSASVGDRVTITCRTSRSISQYLAWYQQKPGKVPKLLIYSGSTLQSGVPSRFSGSGSGTDFTLTISSLQPEDVATYYCQQHNENPLTFGGGTKVEIKSGGGGEVQLVESGGGLVQPGGSLRLSCAASGFNIKDTYIHFVRQAPGKGLEWIGRIDPANDNTLYASKFQGKATISADTSKNTAYLQMNSLRAEDTAVYYCGRGYGYYVFDHWGQGTLVTVSSGGCPPC
0.13 | IAB22C-3 (other, Cys-diabody (scFv dimer); also called anti-CD8 Cys-diabody, 3 Cys (CPPCPPC)) scFv: DVQITQSPSSLSASVGDRVTITCRTSRSISQYLAWYQQKPGKVPKLLIYSGSTLQSGVPSRFSGSGSGTDFTLTISSLQPEDVATYYCQQHNENPLTFGGGTKVEIKSGGGGEVQLVESGGGLVQPGGSLRLSCAASGFNIKDTYIHFVRQAPGKGLEWIGRIDPANDNTLYASKFQGKATISADTSKNTAYLQMNSLRAEDTAVYYCGRGYGYYVFDHWGQGTLVTVSSGGCPPCPPC
0.08 | IAB22C-1 (other, Cys-diabody (scFv dimer); also called anti-CD8 Cys-diabody, 1 Cys (GGC)) scFv: DVQITQSPSSLSASVGDRVTITCRTSRSISQYLAWYQQKPGKVPKLLIYSGSTLQSGVPSRFSGSGSGTDFTLTISSLQPEDVATYYCQQHNENPLTFGGGTKVEIKGGGSGGGGEVQLVESGGGLVQPGGSLRLSCAASGFNIKDTYIHFVRQAPGKGLEWIGRIDPANDNTLYASKFQGKATISADTSKNTAYLQMNSLRAEDTAVYYCGRGYGYYVFDHWGQGTLVTVSSGGC
